This series concerns the molecule itself. The experiment in a line: crystal structure.

B1: E. coli glyoxylate reductase/hydroxypyruvate reductase A (EcGhrA), wild type, His6-tagged (enzyme, UniProt P75913 1-312, looked up)
chain: MDIIFYHPTFDTQWWIEALRKAIPQARVRAWKSGDNDSADYALVWHPPVEMLAGRDLKAVFALGAGVDSILSKLQAHPEMLNPSVPLFRLEDTGMGEQMQEYAVSQVLHWFRRFDDYRIQQNSSHWQPLPEYHREDFTIGILGAGVLGSKVAQSLQTWRFPLRCWSRTRKSWPGVQSFAGREELSAFLSQCRVLINLLPNTPETVGIINQQLLEKLPDGAYLLNLARGVHVVEDDLLAALDSGKVKGAMLDVFNREPLPPESPLWQHPRVTITPHVAAITRPAEAVEYISRTIAQLEKGERVCGQVDRARGY
Regarding B1, the binding result is given as “binds”.

The values are drawn from article doi:10.1101/2022.04.02.486822 (bioRxiv, 2022).
